“And” between values parts separate entries of the source, which are not always exact repeats. Identical values can stand only once.
B1: AD14216: multimeric (dimer) FXII-ANGPTL3 RNAi agent conjugate with NAG37s ligand, not metabolically stabilized, SEQ ID NO 5-7 (nucleic acid)
chain 1: UUCAAAGCACUUUAUUGAG
chain 2: UUGAGUUGAGUUCAAGUGA
chain 3: UCACUUGAACUCAACUCAACUCAAUAAAGUGCUUUGAA
modifications: NAG37s ligand conjugate; modified_base 1 OTHER; 5'-cyclopropyl phosphonate-2'-O-methyluridine; modified_base 1^2 OTHER; phosphorothioate linkage; modified_base 2 OTHER; 2'-fluorouridine; modified_base 2^3 OTHER; modified_base 3 cm; modified_base 3^4 OTHER; modified_base 4 OTHER; 2'-fluoroadenosine; modified_base 5 OTHER; 2'-O-methyladenosine; modified_base 6 OTHER; 2'-fl; phosphoro
B2: AD14218: multimeric (dimer) FXII-ANGPTL3 RNAi agent conjugate with metabolically stabilized NAG52s ligand, SEQ ID NO 11-13 (nucleic acid)
chain 1: UUCAAAGCACUUUAUUGAG
chain 2: UUGAGUUGAGUUCAAGUGA
chain 3: B1 chain 3
modifications: NAG52s ligand conjugate; modified_base 1 OTHER; 5'-cyclopropyl phosphonate-2'-O-methyluridine; modified_base 1^2 OTHER; phosphorothioate linkage; modified_base 2 OTHER; 2'-fluorouridine; modified_base 2^3 OTHER; modified_base 3 cm; modified_base 3^4 OTHER; modified_base 4 OTHER; 2'-fluoroadenosine; modified_base 5 OTHER; 2'-O-methyladenosine; modified_base 6 OTHER; 2'-fl; phosphoro
B3: AD14217: multimeric (dimer) FXII-ANGPTL3 RNAi agent conjugate with metabolically stabilized NAG42s ligand, SEQ ID NO 8-10 (nucleic acid)
chain 1: UUCAAAGCACUUUAUUGAG
chain 2: UUGAGUUGAGUUCAAGUGA
chain 3: B1 chain 3
modifications: NAG42s ligand conjugate; modified_base 1 OTHER; 5'-cyclopropyl phosphonate-2'-O-methyluridine; modified_base 1^2 OTHER; phosphorothioate linkage; modified_base 2 OTHER; 2'-fluorouridine; modified_base 2^3 OTHER; modified_base 3 cm; modified_base 3^4 OTHER; modified_base 4 OTHER; 2'-fluoroadenosine; modified_base 5 OTHER; 2'-O-methyladenosine; modified_base 6 OTHER; 2'-fl; phosphoro

Tests used:
ANGPTL3 = experiment: Serum ANGPTL3 protein by ELISA after single SC dose in cynomolgus monkeys (Example 4); format: in vivo, cynomolgus macaque (Macaca fascicularis); parameters: key to Avg cANGPTL3 normalized to pre-treatment and control: ratio to animal's pre-dose geometric mean, then to saline group mean
Description: (§1) Multimeric (dimer) RNAi agent conjugates that included metabolically stabilized NAG targeting ligands were evaluated for gene silencing activity in cynomolgus macaque (Macaca fascicularis) primates (referred to herein as “cynos”). Each of the multimeric RNAi agent conjugates evaluated included one RNAi agent of the conjugate having sufficient complementarity with the mouse Angiopoietin-like 3 (ANGPTL3) gene transcript, and a second RNAi agent having sufficient complementarity with the mouse Factor 12 (FXII) gene transcript. As discussed in more detail below, both FXII and ANGPTL3 gene expression levels were assessed.
(§2) At day 1, male cynos were given a single subcutaneous administration of 0.3 mL/kg animal weight (20 mg/mL concentration) containing 6.0 mg/kg (mpk) of a multimeric RNAi agent conjugate formulated in isotonic saline, or 3.0 mg/kg of two separate RNAi conjugates, according to the following Table 3.
(§3) Three (3) cynos were dosed in each Group (n=3). Serum samples were taken on days −14, −7, and day 1 (pre-dose). Serum was then collected on days 8, 15, 22, 29, 36 43, 50, 57, 64, 71, 78, 98, 106, 120, 133, 148, and 162.
(§4) ANGPTL3 protein levels in serum were measured by ELISA assay (R&D Systems), according to the manufacturer's recommendations. FXII protein levels in serum were measured by ELISA assay (R&D Systems), according to the manufacturer's recommendations. The ANGPTL3 protein levels and FXII protein levels for each animal were normalized. For normalization, the level of ANGPTL3 protein or FXII protein, respectively, for each animal at a time point, was divided by the geometric mean of pre-treatment level of expression in that animal (in this case at days −14, −7 and 1 (pre-dose)) to determine the ratio of expression “normalized to pre-treatment.” Expression at a specific time point was then normalized to the saline control group by dividing the “normalized to pre-treatment” ratio for an individual animal by the mean “normalized to pretreatment” ratio of all […] in the saline control group.

FXII = experiment: Serum FXII protein by ELISA after single SC dose in cynomolgus monkeys (Example 4); format: in vivo, cynomolgus macaque (Macaca fascicularis); parameters: key to Avg cFXII normalized to pre-treatment and control: ratio to animal's pre-dose geometric mean, then to saline group mean
Description: as §1, §2, §3, §4

[1] = Day 8, single SC dose day 1, 6.0 mg/kg (Group 1: 3.0+3.0 mg/kg)
[2] = Day 15, single SC dose day 1, 6.0 mg/kg (Group 1: 3.0+3.0 mg/kg)
[3] = Day 22, single SC dose day 1, 6.0 mg/kg (Group 1: 3.0+3.0 mg/kg)
[4] = Day 29, single SC dose day 1, 6.0 mg/kg (Group 1: 3.0+3.0 mg/kg)
[5] = Day 36, single SC dose day 1, 6.0 mg/kg (Group 1: 3.0+3.0 mg/kg)
[6] = Day 43, single SC dose day 1, 6.0 mg/kg (Group 1: 3.0+3.0 mg/kg)
[7] = Day 50, single SC dose day 1, 6.0 mg/kg (Group 1: 3.0+3.0 mg/kg)
[8] = Day 57, single SC dose day 1, 6.0 mg/kg (Group 1: 3.0+3.0 mg/kg)
[9] = Day 64, single SC dose day 1, 6.0 mg/kg (Group 1: 3.0+3.0 mg/kg)
[10] = Day 71, single SC dose day 1, 6.0 mg/kg (Group 1: 3.0+3.0 mg/kg)
[11] = Day 78, single SC dose day 1, 6.0 mg/kg (Group 1: 3.0+3.0 mg/kg)
[12] = Day 98, single SC dose day 1, 6.0 mg/kg (Group 1: 3.0+3.0 mg/kg)
[13] = Day 106, single SC dose day 1, 6.0 mg/kg (Group 1: 3.0+3.0 mg/kg)
[14] = Day 120, single SC dose day 1, 6.0 mg/kg (Group 1: 3.0+3.0 mg/kg)
[15] = Day 133, single SC dose day 1, 6.0 mg/kg (Group 1: 3.0+3.0 mg/kg)
[16] = Day 148, single SC dose day 1, 6.0 mg/kg (Group 1: 3.0+3.0 mg/kg)
[17] = Day 162, single SC dose day 1, 6.0 mg/kg (Group 1: 3.0+3.0 mg/kg)

| Molecule | Avg cANGPTL3 normalized to pre-treatment and control (ANGPTL3; [1]) | Avg cANGPTL3 normalized to pre-treatment and control (ANGPTL3; [2]) | Avg cANGPTL3 normalized to pre-treatment and control (ANGPTL3; [3]) | cANGPTL3 knockdown (ANGPTL3; [3]) | Avg cANGPTL3 normalized to pre-treatment and control (ANGPTL3; [4]) | Avg cANGPTL3 normalized to pre-treatment and control (ANGPTL3; [5]) | Avg cANGPTL3 normalized to pre-treatment and control (ANGPTL3; [6]) | Avg cANGPTL3 normalized to pre-treatment and control (ANGPTL3; [7]) | Avg cANGPTL3 normalized to pre-treatment and control (ANGPTL3; [8]) | Avg cANGPTL3 normalized to pre-treatment and control (ANGPTL3; [9]) | Avg cANGPTL3 normalized to pre-treatment and control (ANGPTL3; [10]) | Avg cANGPTL3 normalized to pre-treatment and control (ANGPTL3; [11]) | Avg cANGPTL3 normalized to pre-treatment and control (ANGPTL3; [12]) | Avg cANGPTL3 normalized to pre-treatment and control (ANGPTL3; [13]) | cANGPTL3 knockdown (ANGPTL3; [13]) | Avg cANGPTL3 normalized to pre-treatment and control (ANGPTL3; [14]) | Avg cANGPTL3 normalized to pre-treatment and control (ANGPTL3; [15]) | Avg cFXII normalized to pre-treatment and control (FXII; [1]) | Avg cFXII normalized to pre-treatment and control (FXII; [2]) | Avg cFXII normalized to pre-treatment and control (FXII; [3]) | further results |
| --- | --- | --- | --- | --- | --- | --- | --- | --- | --- | --- | --- | --- | --- | --- | --- | --- | --- | --- | --- | --- | --- |
| B1 | 0.442 | 0.362 | 0.339 | approximately 66% | 0.403 | 0.369 | 0.394 | 0.560 | 0.622 | 0.590 | 0.641 | 0.603 | 0.666 | 0.944 | no meaningful knockdown | 1.128 | 1.129 | 0.481 | 0.320 | 0.222 | cFXII knockdown (FXII; [3]): approximately 78%; Avg cFXII normalized to pre-treatment and control (FXII; [4]): 0.179; Avg cFXII normalized to pre-treatment and control (FXII; [5]): 0.224; Avg cFXII normalized to pre-treatment and control (FXII; [6]): 0.237; Avg cFXII normalized to pre-treatment and control (FXII; [7]): 0.130; Avg cFXII normalized to pre-treatment and control (FXII; [8]): 0.194; Avg cFXII normalized to pre-treatment and control (FXII; [9]): 0.184; Avg cFXII normalized to pre-treatment and control (FXII; [10]): 0.429; Avg cFXII normalized to pre-treatment and control (FXII; [11]): 0.491; Avg cFXII normalized to pre-treatment and control (FXII; [12]): 0.592; cFXII knockdown (FXII; [12]): approximately 41%; Avg cFXII normalized to pre-treatment and control (FXII; [13]): 0.520; Avg cFXII normalized to pre-treatment and control (FXII; [14]): 0.567; Avg cFXII normalized to pre-treatment and control (FXII; [15]): 0.784; Avg cFXII normalized to pre-treatment and control (FXII; [16]): 0.589; Avg cFXII normalized to pre-treatment and control (FXII; [17]): 0.728 |
| B2 | 0.252 | 0.238 | 0.137 | ~86% | 0.161 | 0.186 | 0.164 | 0.212 | 0.245 | 0.352 | 0.328 | 0.354 | 0.425 | 0.565 | approximately 45% | 0.637 | 0.672 | 0.299 | 0.201 | 0.156 | cFXII knockdown (FXII; [3]): approximately 85%; Avg cFXII normalized to pre-treatment and control (FXII; [4]): 0.077; Avg cFXII normalized to pre-treatment and control (FXII; [5]): 0.058; Avg cFXII normalized to pre-treatment and control (FXII; [6]): 0.058; Avg cFXII normalized to pre-treatment and control (FXII; [7]): 0.032; Avg cFXII normalized to pre-treatment and control (FXII; [8]): 0.056; Avg cFXII normalized to pre-treatment and control (FXII; [9]): 0.038; Avg cFXII normalized to pre-treatment and control (FXII; [10]): 0.094; Avg cFXII normalized to pre-treatment and control (FXII; [11]): 0.109; Avg cFXII normalized to pre-treatment and control (FXII; [12]): 0.139; cFXII knockdown (FXII; [12]): approximately 86%; Avg cFXII normalized to pre-treatment and control (FXII; [13]): 0.158; Avg cFXII normalized to pre-treatment and control (FXII; [14]): 0.194; Avg cFXII normalized to pre-treatment and control (FXII; [15]): 0.213; Avg cFXII normalized to pre-treatment and control (FXII; [16]): 0.263; cFXII inhibition (FXII; Day 162, single SC dose day 1, 6.0 mg/kg): more than 70%; Avg cFXII normalized to pre-treatment and control (FXII; [17]): 0.285 |
| B3 | 0.361 | 0.288 | 0.194 | approximately 81% | 0.261 | 0.246 | 0.272 | 0.327 | 0.456 | 0.548 | 0.521 | 0.505 | 0.490 | 0.777 and 0.770 | approximately 33% | 0.943 | 0.892 | 0.430 | 0.230 | 0.219 | cFXII knockdown (FXII; [3]): approximately 78%; Avg cFXII normalized to pre-treatment and control (FXII; [4]): 0.095; Avg cFXII normalized to pre-treatment and control (FXII; [5]): 0.126; Avg cFXII normalized to pre-treatment and control (FXII; [6]): 0.103; Avg cFXII normalized to pre-treatment and control (FXII; [7]): 0.104; Avg cFXII normalized to pre-treatment and control (FXII; [8]): 0.065; Avg cFXII normalized to pre-treatment and control (FXII; [9]): 0.093; Avg cFXII normalized to pre-treatment and control (FXII; [10]): 0.211; Avg cFXII normalized to pre-treatment and control (FXII; [11]): 0.230; Avg cFXII normalized to pre-treatment and control (FXII; [12]): 0.316; cFXII knockdown (FXII; [12]): approximately 69%; Avg cFXII normalized to pre-treatment and control (FXII; [13]): 0.316; Avg cFXII normalized to pre-treatment and control (FXII; [14]): 0.443; Avg cFXII normalized to pre-treatment and control (FXII; [15]): 0.536; Avg cFXII normalized to pre-treatment and control (FXII; [16]): 0.567; Avg cFXII normalized to pre-treatment and control (FXII; [17]): 0.468 |

From patent publication US20260176621A1, “Metabolically Stabilized Carbohydrate Targeting Ligands For Oligonucleotide Conjugates” (Arrowhead Pharmaceuticals, Inc., priority 2023, published 2026)
